Data on two substances can be found in article doi:10.1101/2020.05.19.103432.

Assay [1] has as its target GltPh K55C/C321A/A364C mutant, cross-linked with HgCl2 (GltPh^IFS) (UniProt O59010). The assay can be described thus: cryo-EM structure.
Assay [2] has as its target GltPh, fully functional seven-histidine mutant, referred to as wildtype (WT) (UniProt O59010). The assay can be described thus: cryo-EM structure.

For “GltPh K55C/C321A/A364C mutant, cross-linked with HgCl2 (GltPh^IFS) (from UniProt O59010 1-425) (natural protein)”, the stoichiometry N in assay [1] was 3.

As to “GltPh, fully functional seven-histidine mutant, referred to as wildtype (WT) (from UniProt O59010 1-417) (natural protein)”, the stoichiometry N in assay [2] was 3.
